In article PMC9691366, “Modulating the pharmacokinetic profile of Actinium-225-labeled macropa-derived radioconjugates by dual targeting of PSMA and albumin” (Theranostics, 2022):

Columns and labels:
[1] = format: physicochemical; details: pH 7.4
Method: 1-Octanol/water distribution coefficients (log D) were determined by applying the shake-flask-method. 20 µL of the reaction mixture were poured into 580 µL of 5xPBS (pH 7.4). Afterwards, 600 µL of 1-octanol was added and the two-phase-system was vigorously stirred for 5 min. Then, the samples were centrifuged, the phases were separated and the count rates were measured using ISOMED2160 sodium iodide crystal detector (at least 4 h after phase separation due to initial decay products).

[2] = system: LNCaP tumor-bearing SCID mice; assay: Ex vivo biodistribution in LNCaP tumor-bearing SCID mice
From the text: (§1) The biodistribution experiments with [^225Ac]Ac-mcp-M-alb-PSMA and [^225Ac]Ac-mcp-D-alb-PSMA were accomplished using LNCaP tumor-bearing mice. The SCID male mice (ENVIGO, Indianapolis, IN, USA) 8 weeks old were subcutaneously xenografted into the right flank with 10∙10^6 LNCaP cells (ATCC, Manassas, VA, USA) mixed with Matrigel Matrix (Corning Inc., Corning, NY, USA) at a 1:1 ratio. The tumor growth was periodically monitored by caliper-based measurements. When the tumor volume reached 200-300 mm^3 (i.e., approx. 6 weeks after the xenografting of the cells), the mice were enrolled in the biodistribution study. All experimental animals were housed in a specific-pathogen-free animal facility and all experiments with animals were performed in accordance with appropriate legal norms (Czech Law No. 246/1992) and with the approval of the Ministry of Education, Youth and Sports (MSMT-35035/2019-3) and approval of the Ethical committee of Faculty of Medicine and Dentistry, Palacky University in Olomouc. The number of animals was reduced as much as possible (n = 3-4 per group and time point) for in vivo experiments in order to strictly follow 3Rs principle.
(§2) For the purpose of biodistribution studies, the ^225Ac-radioconjugates were diluted with saline. The diluted ^225Ac-radioconjugates were applied retro-orbitally (r.o.) to the experimental animals at a dose of 50 kBq per mouse corresponding to 10 pmol of the PSMA-inhibitor. The radioactivity application was carried out under 2% isoflurane anesthesia (FORANE, Abbott Laboratories, Abbott Park, IL, USA) to minimize animal suffering and to prevent animal motion. The mice were sacrificed by cervical dislocation 1, 4, 24, 48, 72, and 120 h (plus 168 h for [^225Ac]Ac-mcp-D-alb-PSMA) post-injection and organs of interest (blood, spleen, pancreas, stomach, intestine, kidneys, liver, heart, lungs, muscle, bone, and tumor) were collected. The organs were weighed, and their radioactivity was counted on an automatic gamma counter. The uptake of the ^225Ac-radioconjugates was expressed as a percentage of injected dose per gram of the corresponding organ (%ID/g). The area under the curve (AUC) was determined for both tested PSMA ligands from non-decay-corrected data obtained from the ex vivo biodistribution data of the tumors, kidneys, and blood.

[3] = as above; details: mouse, in vivo, 50 kBq per mouse; for tissue uptake at 1 h: 1 h p.i.; for tissue uptake at 4 h: 4 h p.i.; for tissue uptake at 24 h: 24 h p.i.; for tissue uptake at 48 h: 48 h p.i.; for tissue uptake at 72 h: 72 h p.i.; for tissue uptake at 120 h: 120 h p.i.
From the text: as §1, §2

[4] = non-decay corrected biodistribution data, mean ± SD

## O=C(O)CC[C@H](NC(=O)N[C@@H](CCCCNC(=O)[C@H](Cc1ccc2ccccc2c1)NC(=O)[C@H]1CC[C@H](CNC(=O)[C@H](CCCCn2cc(COc3cc(CN4CCOCCOCCN(Cc5cccc(C(=O)O)n5)CCOCCOCC4)nc(C(=O)O)c3)nn2)NC(=O)[C@H](CCC(=O)O)NC(=O)CCCc2ccc(I)cc2)CC1)C(=O)O)C(=O)O [[^225Ac]Ac-mcp-M-alb-PSMA, metal not drawn]
[1]
  logD: -2.4
[2]; mouse, in vivo
  AUCTu-to-AUCBl: 26
  AUCTu-to-AUCKi: 1.5
  AUCTu-to-AUCLi: 29
  blood clearance: duration of excretion: 24 h
  maximal tumor uptake compared to counterpart without dedicated albumin binder: approximately four times higher
[2]; [4]
  AUC Blood: 132 ± 7.2 %ID/g.h
  AUC Kidneys: 2269 ± 288 %ID/g.h
  AUC Liver: 119 ± 4.6 %ID/g.h
  AUC Tumor: 3494 ± 194 %ID/g.h
[3]; male, SCID, total radioactivity
  tissue to tissue ratio: 1490
[3]; blood uptake (AV)
  tissue uptake at 1 h: 6.47 %ID/g
  tissue uptake at 4 h: 4.8 %ID/g
  tissue uptake at 24 h: 0.54 %ID/g
  tissue uptake at 48 h: 0.08 %ID/g
  tissue uptake at 72 h: 0.03 %ID/g
  tissue uptake at 120 h: 0.03 %ID/g
[3]; femur uptake (AV)
  tissue uptake at 1 h: 0.61 %ID/g
  tissue uptake at 4 h: 0.62 %ID/g
  tissue uptake at 24 h: 0.32 %ID/g
  tissue uptake at 48 h: 0.44 %ID/g
  tissue uptake at 72 h: 0.32 %ID/g
  tissue uptake at 120 h: 0.43 %ID/g
[3]; heart uptake (AV)
  tissue uptake at 1 h: 2.03 %ID/g
  tissue uptake at 4 h: 1.63 %ID/g
  tissue uptake at 24 h: 0.34 %ID/g
  tissue uptake at 48 h: 0.22 %ID/g
  tissue uptake at 72 h: 0.15 %ID/g
  tissue uptake at 120 h: 0.23 %ID/g
[3]; intestine uptake (AV)
  tissue uptake at 1 h: 0.6 %ID/g
  tissue uptake at 4 h: 0.54 %ID/g
  tissue uptake at 24 h: 0.81 %ID/g
  tissue uptake at 48 h: 0.1 %ID/g
  tissue uptake at 72 h: 0.12 %ID/g
  tissue uptake at 120 h: 0.06 %ID/g
[3]; kidneys uptake (AV)
  tissue uptake at 1 h: 29.5 %ID/g
  tissue uptake at 4 h: 67.9 %ID/g
  tissue uptake at 24 h: 33.1 %ID/g
  tissue uptake at 48 h: 15.7 %ID/g
  tissue uptake at 72 h: 9.59 %ID/g
  tissue uptake at 120 h: 8.82 ± 4.4 %ID/g
[3]; liver uptake (AV)
  tissue uptake at 1 h: 1.44 %ID/g
  tissue uptake at 4 h: 1.43 %ID/g
  tissue uptake at 24 h: 1.08 %ID/g
  tissue uptake at 48 h: 1.19 %ID/g
  tissue uptake at 72 h: 1.08 %ID/g
  tissue uptake at 120 h: 1.27 %ID/g
[3]; lung uptake (AV)
  tissue uptake at 1 h: 6.27 %ID/g
  tissue uptake at 4 h: 4.99 %ID/g
  tissue uptake at 24 h: 2.19 %ID/g
  tissue uptake at 48 h: 1.77 %ID/g
  tissue uptake at 72 h: 1.47 %ID/g
  tissue uptake at 120 h: 1.73 %ID/g
[3]; muscle uptake (AV)
  tissue uptake at 1 h: 0.53 %ID/g
  tissue uptake at 4 h: 0.51 %ID/g
  tissue uptake at 24 h: 0.14 %ID/g
  tissue uptake at 48 h: 0.07 %ID/g
  tissue uptake at 72 h: 0.08 %ID/g
  tissue uptake at 120 h: 0.12 %ID/g
[3]; pancreas uptake (AV)
  tissue uptake at 1 h: 0.57 %ID/g
  tissue uptake at 4 h: 0.57 %ID/g
  tissue uptake at 24 h: 0.26 %ID/g
  tissue uptake at 48 h: 0.1 %ID/g
  tissue uptake at 72 h: 0.06 %ID/g
  tissue uptake at 120 h: 0.07 %ID/g
[3]; spleen uptake (AV)
  tissue uptake at 1 h: 7.24 %ID/g
  tissue uptake at 4 h: 3.4 %ID/g
  tissue uptake at 24 h: 1.24 %ID/g
  tissue uptake at 48 h: 1.31 %ID/g
  tissue uptake at 72 h: 1.12 %ID/g
  tissue uptake at 120 h: 1.43 %ID/g
[3]; stomach uptake (AV)
  tissue uptake at 1 h: 0.83 %ID/g
  tissue uptake at 4 h: 0.58 %ID/g
  tissue uptake at 24 h: 0.39 %ID/g
  tissue uptake at 48 h: 0.17 %ID/g
  tissue uptake at 72 h: 0.1 %ID/g
  tissue uptake at 120 h: 0.11 %ID/g
[3]; tumor uptake (AV)
  tissue uptake at 1 h: 5.96 %ID/g
  tissue uptake at 4 h: 18 %ID/g
  tissue uptake at 24 h: 29.5 %ID/g
  tissue uptake at 48 h: 36.5 %ID/g
  tissue uptake at 72 h: 38.7 %ID/g
  tissue uptake at 120 h: 46 %ID/g
[3]; tumor uptake (highest accumulation), 128 h p.i.
  tissue uptake at 128 h: 46 ± 7.77 %ID/g
